Broadly, the Kd is the free concentration of one partner at which half of the binding sites on the other are occupied at equilibrium, for simple one-to-one binding.

B1: VH SEQ ID NO 618 / VL SEQ ID NO 318 (antibody, IgG4, V domains shown)
VH: QVQLQESGPGLVKPSQTLSLTCTVSGYSISSDSAWSWIRQFPGKGLEWIGYIQYSGSTNYNPSLKSRVTISRDTSKNQFSLKLSSVTAADTAVYYCARSVNYYGNSFAVGPWGQGTLVTVSS
VL: EIVLTQSPATLSLSPGERATLSCRASQGISDYLHWYQQKPGEAPRLLIKYTSQPATGIPARFSGSGSGTDFTLTISSLEPEDFAVYYCQNGHSFPLTFGQGTKLEIK
notes: humanized 11F2; IgG4 S228P/kappa
B2: VH SEQ ID NO 618 / VL SEQ ID NO 382 (antibody, IgG4, V domains shown)
VH: QVQLQESGPGLVKPSQTLSLTCTVSGYSISSDSAWSWIRQFPGKGLEWIGYIQYSGSTNYNPSLKSRVTISRDTSKNQFSLKLSSVTAADTAVYYCARSVNYYGNSFAVGPWGQGTLVTVSS
VL: EIVLTQSPATLSLSPGERATLSCRASQGLSDYLHWYQQKPGEAPRLLIKYASQPATGIPARFSGSGSGTDFTLTISSLEPEDFAVYYCQNGHSFPLTFGQGTKLEIK
notes: as for B1
B3: VH SEQ ID NO 618 / VL SEQ ID NO 422 (antibody, IgG4, V domains shown)
VH: QVQLQESGPGLVKPSQTLSLTCTVSGYSISSDSAWSWIRQFPGKGLEWIGYIQYSGSTNYNPSLKSRVTISRDTSKNQFSLKLSSVTAADTAVYYCARSVNYYGNSFAVGPWGQGTLVTVSS
VL: EIVLTQSPATLSLSPGERATLSCRASQGVSDYLAWYQQKPGQAPRLLIKYASQPATGIPARFSGSGSGTDFTLTISSLEPEDFAVYYCQQGHSFPLTFGQGTKLEIK
notes: as for B1
B4: VH SEQ ID NO 618 / VL SEQ ID NO 454 (antibody, IgG4, V domains shown)
VH: QVQLQESGPGLVKPSQTLSLTCTVSGYSISSDSAWSWIRQFPGKGLEWIGYIQYSGSTNYNPSLKSRVTISRDTSKNQFSLKLSSVTAADTAVYYCARSVNYYGNSFAVGPWGQGTLVTVSS
VL: EIVLTQSPATLSLSPGERATLSCRASQGVSDYLHWYQQKPGEAPRLLIKYASQPATGIPARFSGSGSGTDFTLTISSLEPEDFAVYYCQNGHSFPLTFGQGTKLEIK
notes: as for B1
B5: VH SEQ ID NO 618 / VL SEQ ID NO 406 (antibody, IgG4, V domains shown)
VH: QVQLQESGPGLVKPSQTLSLTCTVSGYSISSDSAWSWIRQFPGKGLEWIGYIQYSGSTNYNPSLKSRVTISRDTSKNQFSLKLSSVTAADTAVYYCARSVNYYGNSFAVGPWGQGTLVTVSS
VL: EIVLTQSPATLSLSPGERATLSCRASQGVSDYLAWYQQKPGQAPRLLIKYASQPATGIPARFSGSGSGTDFTLTISSLEPEDFAVYYCQNGHSFPLTFGAGTKLEIK
notes: as for B1
B6: VH SEQ ID NO 618 / VL SEQ ID NO 438 (antibody, IgG4, V domains shown)
VH: QVQLQESGPGLVKPSQTLSLTCTVSGYSISSDSAWSWIRQFPGKGLEWIGYIQYSGSTNYNPSLKSRVTISRDTSKNQFSLKLSSVTAADTAVYYCARSVNYYGNSFAVGPWGQGTLVTVSS
VL: EIVLTQSPATLSLSPGERATLSCRASQGVSDYLAWYQQKPGQAPRLLIKYASQPATGIPARFSGSGSGTDFTLTISSLEPEDVAVYYCQNGHSFPLTFGQGTKLEIK
notes: as for B1
B7: VH SEQ ID NO 618 / VL SEQ ID NO 462 (antibody, IgG4, V domains shown)
VH: QVQLQESGPGLVKPSQTLSLTCTVSGYSISSDSAWSWIRQFPGKGLEWIGYIQYSGSTNYNPSLKSRVTISRDTSKNQFSLKLSSVTAADTAVYYCARSVNYYGNSFAVGPWGQGTLVTVSS
VL: EIVLTQSPATLSLSPGERATLSCRASQGVSDYLHWYQQKPGQAPRLLIKYASQPATGIPARFSGSGSGTDFTLTISSLEPEDFAVYYCQNGHSFPLTFGAGTKLEIK
notes: as for B1
B8: VH SEQ ID NO 618 / VL SEQ ID NO 342 (antibody, IgG4, V domains shown)
VH: QVQLQESGPGLVKPSQTLSLTCTVSGYSISSDSAWSWIRQFPGKGLEWIGYIQYSGSTNYNPSLKSRVTISRDTSKNQFSLKLSSVTAADTAVYYCARSVNYYGNSFAVGPWGQGTLVTVSS
VL: EIVLTQSPATLSLSPGERATLSCRASQGISDYLHWYQQKPGQAPRLLIKYTSQPATGIPARFSGSGSGRDFTLTISSLEPEDFAVYYCQNGHSFPLTFGAGTKLELK
notes: as for B1
B9: VH SEQ ID NO 618 / VL SEQ ID NO 478 (antibody, IgG4, V domains shown)
VH: QVQLQESGPGLVKPSQTLSLTCTVSGYSISSDSAWSWIRQFPGKGLEWIGYIQYSGSTNYNPSLKSRVTISRDTSKNQFSLKLSSVTAADTAVYYCARSVNYYGNSFAVGPWGQGTLVTVSS
VL: EIVLTQSPATLSLSPGERATLSCRASQGVSDYLHWYQQKPGQAPRLLIKYASQPATGIPARFSGSGSGTDFTLTISSLEPEDFAVYYCQQGHSFPLTFGQGTKLEIK
notes: as for B1
B10: VH SEQ ID NO 618 / VL SEQ ID NO 358 (antibody, IgG4, V domains shown)
VH: QVQLQESGPGLVKPSQTLSLTCTVSGYSISSDSAWSWIRQFPGKGLEWIGYIQYSGSTNYNPSLKSRVTISRDTSKNQFSLKLSSVTAADTAVYYCARSVNYYGNSFAVGPWGQGTLVTVSS
VL: EIVLTQSPATLSLSPGERATLSCRASQGISDYLHWYQQKPGQAPRLLIKYTSQPATGIPARFSGSGSGTDFTLTISSLEPEDFAVYYCQNGHSFPLTFGQGTKLEIK
notes: as for B1
B11: VH SEQ ID NO 618 / VL SEQ ID NO 334 (antibody, IgG4, V domains shown)
VH: QVQLQESGPGLVKPSQTLSLTCTVSGYSISSDSAWSWIRQFPGKGLEWIGYIQYSGSTNYNPSLKSRVTISRDTSKNQFSLKLSSVTAADTAVYYCARSVNYYGNSFAVGPWGQGTLVTVSS
VL: EIVLTQSPATLSLSPGERATLSCRASQGISDYLHWYQQKPGQAPRLLIKYASQPATGIPARFSGSGSGTDFTLTISSLEPEDFAVYYCQNGHSFPLTFGQGTKLEIK
notes: as for B1
B12: VH SEQ ID NO 618 / VL SEQ ID NO 350 (antibody, IgG4, V domains shown)
VH: QVQLQESGPGLVKPSQTLSLTCTVSGYSISSDSAWSWIRQFPGKGLEWIGYIQYSGSTNYNPSLKSRVTISRDTSKNQFSLKLSSVTAADTAVYYCARSVNYYGNSFAVGPWGQGTLVTVSS
VL: EIVLTQSPATLSLSPGERATLSCRASQGISDYLHWYQQKPGQAPRLLIKYTSQPATGIPARFSGSGSGTDFTLTISSLEPEDFAVYYCQNGHSFPLTFGAGTKLELK
notes: as for B1
B13: VH SEQ ID NO 618 / VL SEQ ID NO 414 (antibody, IgG4, V domains shown)
VH: QVQLQESGPGLVKPSQTLSLTCTVSGYSISSDSAWSWIRQFPGKGLEWIGYIQYSGSTNYNPSLKSRVTISRDTSKNQFSLKLSSVTAADTAVYYCARSVNYYGNSFAVGPWGQGTLVTVSS
VL: EIVLTQSPATLSLSPGERATLSCRASQGVSDYLAWYQQKPGQAPRLLIKYASQPATGIPARFSGSGSGTDFTLTISSLEPEDFAVYYCQNGHSFPLTFGQGTKLEIK
notes: as for B1
B14: VH SEQ ID NO 618 / VL SEQ ID NO 366 (antibody, IgG4, V domains shown)
VH: QVQLQESGPGLVKPSQTLSLTCTVSGYSISSDSAWSWIRQFPGKGLEWIGYIQYSGSTNYNPSLKSRVTISRDTSKNQFSLKLSSVTAADTAVYYCARSVNYYGNSFAVGPWGQGTLVTVSS
VL: EIVLTQSPATLSLSPGERATLSCRASQGLSDYLAWYQQKPGEAPRLLIKYASQPATGIPARFSGSGSGTDFTLTISSLEPEDFAVYYCQNGHSFPLTFGQGTKLEIK
notes: as for B1
B15: VH SEQ ID NO 618 / VL SEQ ID NO 430 (antibody, IgG4, V domains shown)
VH: QVQLQESGPGLVKPSQTLSLTCTVSGYSISSDSAWSWIRQFPGKGLEWIGYIQYSGSTNYNPSLKSRVTISRDTSKNQFSLKLSSVTAADTAVYYCARSVNYYGNSFAVGPWGQGTLVTVSS
VL: EIVLTQSPATLSLSPGERATLSCRASQGVSDYLAWYQQKPGQAPRLLIKYASQPATGIPARFSGSGSGTDFTLTISSLEPEDFGVYYCQNGHSFPLTFGQGTKLEIK
notes: as for B1
B16: VH SEQ ID NO 618 / VL SEQ ID NO 326 (antibody, IgG4, V domains shown)
VH: QVQLQESGPGLVKPSQTLSLTCTVSGYSISSDSAWSWIRQFPGKGLEWIGYIQYSGSTNYNPSLKSRVTISRDTSKNQFSLKLSSVTAADTAVYYCARSVNYYGNSFAVGPWGQGTLVTVSS
VL: EIVLTQSPATLSLSPGERATLSCRASQGISDYLHWYQQKPGEAPRLLIKYTSQPATGIPARFSGSGSGTDFTLTISSLEPEDFGVYYCQNGHSFPLTFGAGTKLELK
notes: as for B1
B17: VH SEQ ID NO 618 / VL SEQ ID NO 390 (antibody, IgG4, V domains shown)
VH: QVQLQESGPGLVKPSQTLSLTCTVSGYSISSDSAWSWIRQFPGKGLEWIGYIQYSGSTNYNPSLKSRVTISRDTSKNQFSLKLSSVTAADTAVYYCARSVNYYGNSFAVGPWGQGTLVTVSS
VL: EIVLTQSPATLSLSPGERATLSCRASQGVSDYLAWYQQKPGEAPRLLIKYASQPATGIPARFSGSGSGTDFTLTISSLEPEDFAVYYCQNGHSFPLTFGQGTKLEIK
notes: as for B1
B18: VH SEQ ID NO 618 / VL SEQ ID NO 398 (antibody, IgG4, V domains shown)
VH: QVQLQESGPGLVKPSQTLSLTCTVSGYSISSDSAWSWIRQFPGKGLEWIGYIQYSGSTNYNPSLKSRVTISRDTSKNQFSLKLSSVTAADTAVYYCARSVNYYGNSFAVGPWGQGTLVTVSS
VL: EIVLTQSPATLSLSPGERATLSCRASQGVSDYLAWYQQKPGEAPRLLIKYTSQPATGIPARFSGSGSGTDFTLTISSLEPEDFAVYYCQNGHSFPLTFGQGTKLEIK
notes: as for B1
B19: VH SEQ ID NO 618 / VL SEQ ID NO 446 (antibody, IgG4, V domains shown)
VH: QVQLQESGPGLVKPSQTLSLTCTVSGYSISSDSAWSWIRQFPGKGLEWIGYIQYSGSTNYNPSLKSRVTISRDTSKNQFSLKLSSVTAADTAVYYCARSVNYYGNSFAVGPWGQGTLVTVSS
VL: EIVLTQSPATLSLSPGERATLSCRASQGVSDYLAWYQQKPGQAPRLLIKYTSQPATGIPARFSGSGSGTDFTLTISSLEPEDFAVYYCQNGHSFPLTFGQGTKLEIK
notes: as for B1
B20: VH SEQ ID NO 618 / VL SEQ ID NO 470 (antibody, IgG4, V domains shown)
VH: QVQLQESGPGLVKPSQTLSLTCTVSGYSISSDSAWSWIRQFPGKGLEWIGYIQYSGSTNYNPSLKSRVTISRDTSKNQFSLKLSSVTAADTAVYYCARSVNYYGNSFAVGPWGQGTLVTVSS
VL: EIVLTQSPATLSLSPGERATLSCRASQGVSDYLHWYQQKPGQAPRLLIKYASQPATGIPARFSGSGSGTDFTLTISSLEPEDFAVYYCQNGHSFPLTFGQGTKLEIK
notes: as for B1

This assay deals with T1, recombinant human activated Factor VII (FVIIa) (human, UniProt P08709 61-212; P08709 213-466, ten glutamate residues of the Gla domain may be gamma-carboxylated).
T1 construct: chains tethered by a disulfide bond; also called Factor VIIa; rFVIIa
T1 sequence 1: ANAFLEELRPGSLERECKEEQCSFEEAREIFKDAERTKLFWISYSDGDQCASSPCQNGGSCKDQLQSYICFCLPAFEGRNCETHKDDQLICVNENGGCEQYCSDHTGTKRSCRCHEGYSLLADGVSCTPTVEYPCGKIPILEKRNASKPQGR
T1 sequence 2: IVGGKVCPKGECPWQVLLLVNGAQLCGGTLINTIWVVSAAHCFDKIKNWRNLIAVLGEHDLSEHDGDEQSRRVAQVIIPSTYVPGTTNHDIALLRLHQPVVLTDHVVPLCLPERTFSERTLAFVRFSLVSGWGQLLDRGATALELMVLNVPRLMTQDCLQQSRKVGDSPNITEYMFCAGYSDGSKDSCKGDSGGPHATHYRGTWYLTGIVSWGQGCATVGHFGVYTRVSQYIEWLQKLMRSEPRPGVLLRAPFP
Description: BLI (Fortebio). For orientation: Biolayer interferometry detects binding as a change in optical thickness at a sensor tip.
In the case of B1, the Kd worked out at 1.1 nM.

In the case of B2, the Kd turned out to be 1.1 nM.

Consider B3, for which the Kd is 5800 nM.

Regarding B4, the Kd was 1.3 nM. For B5 the value was 24 nM; for B6, 34 nM.

With B7, the Kd stood at 1.4 nM. For B8 the value was 1.2 nM; for B9, 2 nM; for B10, 0.95 nM. For the molecule B11, the Kd came to 1.3 nM.

B12: the Kd came to 1 nM.

Regarding B13, the Kd was determined as 24 nM.

For B14, the Kd was determined as 21 nM. For B15 the value was 110 nM; for B16, 1.1 nM; for B17, 33 nM. With B18, the Kd turned out to be 180 nM. To B19 belongs 200 nM; to B20, 1.2 nM.

The record behind these values is US20220064329A1 (Novo Nordisk, published 2022).
